Values belong to the binder of their own block, whether it stands above or below them.
How the values were obtained:
Assay in all cases: two-hybrid library CCNG1;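 also: natural log of median RNA to DNA barcode read ratio; higher means stronger binding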
4H3112-bN = biological target: T1, 4H3112-bN
T1 chain: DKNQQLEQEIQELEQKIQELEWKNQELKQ

4H717-bN = biological target: T2, 4H717-bN
T2 chain: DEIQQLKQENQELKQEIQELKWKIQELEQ

4H3855-bN = biological target: T3, 4H3855-bN
T3 chain: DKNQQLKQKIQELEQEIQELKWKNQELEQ

4H2576-bN = biological target: T4, 4H2576-bN
T4 chain: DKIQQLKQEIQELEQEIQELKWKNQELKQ

4H3782-bN = biological target: T5, 4H3782-bN
T5 chain: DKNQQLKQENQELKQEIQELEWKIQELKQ

4H3354-bN = biological target: T6, 4H3354-bN
T6 chain: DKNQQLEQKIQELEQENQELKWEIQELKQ

4H1828-bN = biological target: T7, 4H1828-bN
T7 chain: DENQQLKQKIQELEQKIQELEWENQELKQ

4H331-bN = biological target: T8, 4H331-bN
T8 chain: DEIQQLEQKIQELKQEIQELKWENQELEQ

4H3427-bN = biological target: T9, 4H3427-bN
T9 chain: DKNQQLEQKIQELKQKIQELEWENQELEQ

4H687-bN = biological target: T10, 4H687-bN
T10 chain: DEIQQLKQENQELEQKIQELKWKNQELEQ

4H3185-bN = biological target: T11, 4H3185-bN
T11 chain: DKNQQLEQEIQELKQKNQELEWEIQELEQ

4H953-bN = biological target: T12, 4H953-bN
T12 chain: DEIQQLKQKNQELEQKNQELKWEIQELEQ

4H4001-bN = biological target: T13, 4H4001-bN
T13 chain: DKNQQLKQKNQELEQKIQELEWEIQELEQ

4H2442-bN = biological target: T14, 4H2442-bN
T14 chain: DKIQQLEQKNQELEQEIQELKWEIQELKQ

4H1845-bN = biological target: T15, 4H1845-bN
T15 chain: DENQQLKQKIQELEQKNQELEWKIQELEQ

4H908-bN = biological target: T16, 4H908-bN
T16 chain: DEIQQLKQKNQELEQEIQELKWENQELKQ

4H883-bN = biological target: T17, 4H883-bN
T17 chain: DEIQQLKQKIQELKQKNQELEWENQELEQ

4H72-bN = biological target: T18, 4H72-bN
T18 chain: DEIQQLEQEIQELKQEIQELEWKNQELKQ

4H568-bN = biological target: T19, 4H568-bN
T19 chain: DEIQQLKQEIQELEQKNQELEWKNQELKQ

4H2618-bN = biological target: T20, 4H2618-bN
T20 chain: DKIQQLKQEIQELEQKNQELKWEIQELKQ

4H2729-bN = biological target: T21, 4H2729-bN
T21 chain: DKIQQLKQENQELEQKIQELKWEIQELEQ

4H454-bN = biological target: T22, 4H454-bN
T22 chain: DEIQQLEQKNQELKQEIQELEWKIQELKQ

4H2667-bN = biological target: T23, 4H2667-bN
T23 chain: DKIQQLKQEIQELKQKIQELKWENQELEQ

4H967-bN = biological target: T24, 4H967-bN
T24 chain: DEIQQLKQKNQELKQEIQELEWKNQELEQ

4H918-bN = biological target: T25, 4H918-bN
T25 chain: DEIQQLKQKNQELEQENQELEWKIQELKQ

4H2697-bN = biological target: T26, 4H2697-bN
T26 chain: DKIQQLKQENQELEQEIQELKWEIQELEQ

4H754-bN = biological target: T27, 4H754-bN
T27 chain: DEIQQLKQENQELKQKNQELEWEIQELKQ

4H797-bN = biological target: T28, 4H797-bN
T28 chain: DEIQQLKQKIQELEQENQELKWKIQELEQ

4H607-bN = biological target: T29, 4H607-bN
T29 chain: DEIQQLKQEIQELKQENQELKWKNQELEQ

4H338-bN = biological target: T30, 4H338-bN
T30 chain: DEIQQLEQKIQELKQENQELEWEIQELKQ

4H619-bN = biological target: T31, 4H619-bN
T31 chain: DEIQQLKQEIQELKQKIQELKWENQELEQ

4H906-bN = biological target: T32, 4H906-bN
T32 chain: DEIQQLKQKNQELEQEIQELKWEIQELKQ

4H850-bA = biological target: T33, 4H850-bA
T33 chain: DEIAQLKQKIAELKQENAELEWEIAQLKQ

4H3129-bN = biological target: T34, 4H3129-bN
T34 chain: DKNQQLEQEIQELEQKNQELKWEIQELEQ

4H3631-bN = biological target: T35, 4H3631-bN
T35 chain: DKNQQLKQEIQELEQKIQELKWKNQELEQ

4H584-bN = biological target: T36, 4H584-bN
T36 chain: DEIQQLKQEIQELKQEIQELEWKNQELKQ

4H1629-bN = biological target: T37, 4H1629-bN
T37 chain: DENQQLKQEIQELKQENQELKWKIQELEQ

4H3817-bN = biological target: T38, 4H3817-bN
T38 chain: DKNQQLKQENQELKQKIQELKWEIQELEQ

4H850-bN = biological target: T39, 4H850-bN
T39 chain: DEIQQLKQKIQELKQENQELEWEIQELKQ

4H1393-bN = biological target: T40, 4H1393-bN
T40 chain: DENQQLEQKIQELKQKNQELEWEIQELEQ

4H1710-bN = biological target: T41, 4H1710-bN
T41 chain: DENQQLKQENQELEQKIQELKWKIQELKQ

4H1449-bN = biological target: T42, 4H1449-bN
T42 chain: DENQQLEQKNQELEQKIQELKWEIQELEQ

4H3414-bN = biological target: T43, 4H3414-bN
T43 chain: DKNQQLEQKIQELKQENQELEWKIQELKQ

4H3974-bN = biological target: T44, 4H3974-bN
T44 chain: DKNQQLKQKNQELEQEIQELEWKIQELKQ

4H3638-bN = biological target: T45, 4H3638-bN
T45 chain: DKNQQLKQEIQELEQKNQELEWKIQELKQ

4H1985-bN = biological target: T46, 4H1985-bN
T46 chain: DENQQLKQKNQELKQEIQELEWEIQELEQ

4H1804-bN = biological target: T47, 4H1804-bN
T47 chain: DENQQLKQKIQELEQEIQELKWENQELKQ

4H570-bN = biological target: T48, 4H570-bN
T48 chain: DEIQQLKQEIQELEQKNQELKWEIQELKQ

4H3172-bN = biological target: T49, 4H3172-bN
T49 chain: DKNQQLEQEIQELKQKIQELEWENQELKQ

4H3189-bN = biological target: T50, 4H3189-bN
T50 chain: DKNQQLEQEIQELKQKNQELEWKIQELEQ

4H3843-bN = biological target: T51, 4H3843-bN
T51 chain: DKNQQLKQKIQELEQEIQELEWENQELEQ

4H1446-bN = biological target: T52, 4H1446-bN
T52 chain: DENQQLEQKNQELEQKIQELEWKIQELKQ

4H2610-bN = biological target: T53, 4H2610-bN
T53 chain: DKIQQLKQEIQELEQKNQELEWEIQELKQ

4H3606-bN = biological target: T54, 4H3606-bN
T54 chain: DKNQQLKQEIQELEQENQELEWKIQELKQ

4H462-bN = biological target: T55, 4H462-bN
T55 chain: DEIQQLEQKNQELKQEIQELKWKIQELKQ

4H370-bN = biological target: T56, 4H370-bN
T56 chain: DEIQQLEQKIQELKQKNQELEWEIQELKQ

interaction score (4H3112-bN): 0.443
interaction score (4H717-bN): -0.318
interaction score (4H3855-bN): 0.0633
interaction score (4H2576-bN): 1.52
interaction score (4H3782-bN): 0.26
interaction score (4H3354-bN): -1.74
interaction score (4H1828-bN): 1.19
interaction score (4H331-bN): 0.0332
interaction score (4H3427-bN): -0.728
interaction score (4H687-bN): -0.773
interaction score (4H3185-bN): -0.135
interaction score (4H953-bN): -0.334
interaction score (4H4001-bN): -0.709
interaction score (4H2442-bN): -0.746
interaction score (4H1845-bN): -0.541
interaction score (4H908-bN): -1.28
interaction score (4H883-bN): -0.284
interaction score (4H72-bN): 0.18
interaction score (4H568-bN): -0.67
interaction score (4H2618-bN): 0.00935
interaction score (4H2729-bN): -0.165
interaction score (4H454-bN): -1.22
interaction score (4H2667-bN): 1.18
interaction score (4H967-bN): -0.704
interaction score (4H918-bN): -1.16
interaction score (4H2697-bN): -0.202
interaction score (4H754-bN): -2.15
interaction score (4H797-bN): -1.07
interaction score (4H607-bN): -0.0859
interaction score (4H338-bN): -0.738
B1: 4H1828-bN (peptide)
chain: DENQQLKQKIQELEQKIQELEWENQELKQ

interaction score (4H619-bN): -0.97
interaction score (4H906-bN): -0.497
interaction score (4H850-bA): -0.881
interaction score (4H3129-bN): -0.903
interaction score (4H3631-bN): -1.03
interaction score (4H584-bN): -2.15
interaction score (4H1629-bN): -0.818
interaction score (4H3817-bN): -1.41
interaction score (4H850-bN): -1.57
interaction score (4H1393-bN): -1.33
interaction score (4H1710-bN): -1.7
interaction score (4H1449-bN): -0.996
interaction score (4H3414-bN): -1.76
interaction score (4H3974-bN): -0.815
interaction score (4H3638-bN): 0.818
interaction score (4H1985-bN): -1.58
interaction score (4H1804-bN): -0.711
interaction score (4H570-bN): -2.48
interaction score (4H3172-bN): -1.92
B2: 4H1393-bN (peptide)
chain: DENQQLEQKIQELKQKNQELEWEIQELEQ

interaction score (4H3112-bN): -0.24
interaction score (4H3189-bN): 0.67
interaction score (4H717-bN): -0.982
interaction score (4H3855-bN): 0.333
interaction score (4H2576-bN): 1.07
interaction score (4H3843-bN): 1.05
interaction score (4H3782-bN): -0.169
interaction score (4H3354-bN): -0.558
interaction score (4H1828-bN): 0.29
interaction score (4H331-bN): 1.22
interaction score (4H3427-bN): 0.852
interaction score (4H687-bN): -0.229
interaction score (4H3185-bN): 0.1
interaction score (4H953-bN): -0.0145
interaction score (4H1446-bN): 0.223
interaction score (4H4001-bN): 1.11
interaction score (4H2442-bN): 0.215
interaction score (4H2610-bN): 0.732
interaction score (4H1845-bN): -1.65
interaction score (4H908-bN): -0.254
interaction score (4H883-bN): -0.0261
interaction score (4H72-bN): 0.548
interaction score (4H568-bN): -0.0813
interaction score (4H2618-bN): -0.442
interaction score (4H3606-bN): -0.294
interaction score (4H462-bN): -1.74
interaction score (4H2729-bN): 0.529
interaction score (4H454-bN): 0.124
interaction score (4H2667-bN): 0.641
interaction score (4H967-bN): -1.04
interaction score (4H918-bN): 0.759
interaction score (4H2697-bN): -0.277
interaction score (4H754-bN): -0.286
interaction score (4H370-bN): -0.536
interaction score (4H797-bN): -0.329
interaction score (4H607-bN): 0.502
interaction score (4H338-bN): -0.426
B3: 4H1446-bN (peptide)
chain: DENQQLEQKNQELEQKIQELEWKIQELKQ
